Laboratory results as given in the supplement of paper PMC9876800.

Tested on: peptide library, one residue held at a place counted from the S/T acceptor
Experiment: relative phosphorylation of the sub-library (ratio to the mean residue at this position); human; higher = residue favoured
Outline: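 Purified recombinant kinases (human or orthologue constructs) were incubated in 384-well plates with biotinylated degenerate peptide sub-libraries, each fixing one residue at one position around a central Ser/Thr. Peptides were at 50 μM, with 50 μM ATP spiked with γ-32P-ATP, for 90 min under kinase-specific conditions. Spots on streptavidin membranes were phosphorimaged and quantified by densitometry. Relative sub-library phosphorylation is a ratio to the mean residue at that position.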

PKN2, construct: aa501-984 (from UniProt Q16513)
relative phosphorylation
Details	at +1	at +2	at +3	at +4	at -1	at -2	at -3	at -4	at -5
A fixed	0.532	0.768	0.837	0.925	0.905	1.1	0.867	1.11	0.963
D fixed	0.318	0.322	0.543	0.614	0.962	0.35	0.321	0.59	0.503
E fixed	0.293	0.32	0.545	0.609	0.719	0.357	0.347	0.669	0.522
F fixed	2.82	0.467	0.753	0.535	0.602	0.671	0.464	0.749	0.806
G fixed	0.43	0.554	0.938	1.17	1.32	0.949	0.823	1.19	1.04
H fixed	0.805	1.63	1.22	1.25	1.16	1.43	1.49	1.16	0.946
I fixed	1.34	0.836	0.888	0.877	0.514	0.569	0.514	0.861	1.45
K fixed	1.33	2.49	1.85	1.94	1.66	2.17	2.37	1.82	1.43
L fixed	1.25	0.927	0.946	0.785	0.833	0.571	0.61	0.804	1.34
M fixed	1.84	0.788	0.839	0.804	0.825	0.852	0.643	0.928	0.723
N fixed	0.75	1.02	0.861	0.994	1.37	1.13	0.736	0.938	0.78
P fixed	0.252	0.471	0.557	1.2	1.06	0.538	0.681	0.831	0.99
Q fixed	0.82	0.758	0.998	0.998	1.04	1.11	0.898	1.09	0.89
R fixed	1.44	3.42	2.22	1.7	1.71	2.83	4.31	1.59	1.84
V fixed	0.927	0.8	0.875	0.787	0.74	0.752	0.512	0.985	1.23
W fixed	0.855	0.536	0.979	0.987	0.775	0.801	0.661	0.871	0.723
Y fixed	0.997	0.885	1.15	0.825	0.811	0.82	0.742	0.809	0.824
pThr fixed	1.05	1.15	0.818	0.683	0.799	0.836	0.743	1.11	0.683
pTyr fixed	0.572	0.884	0.864	0.666	0.856	0.711	0.977	0.741	0.863

PKN3, construct: Full length (from UniProt Q6P5Z2)
relative phosphorylation
Details	at +1	at +2	at +3	at +4	at -1	at -2	at -3	at -4	at -5
A fixed	0.497	0.811	0.681	0.955	0.874	1.12	0.679	1.07	0.92
D fixed	0.614	0.652	0.765	0.967	1.01	0.684	0.44	0.823	0.801
E fixed	0.554	0.784	0.848	0.887	1.06	0.791	0.504	1.12	0.719
F fixed	4.24	0.552	0.883	0.671	0.682	0.703	0.562	0.717	0.839
G fixed	0.625	0.52	0.918	1.13	1.12	1.21	0.898	1.08	0.973
H fixed	0.667	1.55	1.32	1.3	1.21	1.12	1.06	1.09	1.12
I fixed	1.14	0.724	0.782	0.714	0.444	0.511	0.427	0.776	1.18
K fixed	0.802	1.67	1.2	1.64	1.55	1.75	1.54	1.55	1.1
L fixed	0.951	0.864	0.894	0.738	0.77	0.569	0.413	0.775	1.34
M fixed	1.83	0.728	0.833	0.858	0.854	0.771	1.28	1.07	0.97
N fixed	0.78	1.17	1	1.19	1.48	1.33	0.713	1.25	1.06
P fixed	0.426	0.432	0.736	1.36	1.56	0.721	0.899	0.924	0.955
Q fixed	0.88	0.806	1.11	1.15	1.36	1.34	0.786	0.922	0.789
R fixed	0.74	3.4	1.4	1.02	1.12	2.24	5.22	1.4	1.5
V fixed	0.892	0.753	0.807	0.716	0.558	0.711	0.496	0.801	1.07
W fixed	0.606	0.683	1.32	0.883	0.524	0.782	0.517	0.85	0.828
Y fixed	0.751	0.898	1.49	0.823	0.812	0.646	0.561	0.786	0.833
pThr fixed	0.747	0.671	0.69	0.944	0.866	0.755	0.532	0.645	0.581
pTyr fixed	0.695	0.952	0.825	0.807	0.585	0.662	0.902	0.676	0.781

PRKACB, construct: Full length (from UniProt P22694)
relative phosphorylation
Details	at +1	at +2	at +3	at +4	at -1	at -2	at -3	at -4	at -5
A fixed	0.818	1.26	0.948	0.9	0.875	0.426	0.62	1.15	1.18
D fixed	0.607	1.56	1.15	1.36	0.667	0.196	0.231	0.657	0.772
E fixed	0.649	0.788	1.04	1.3	0.49	0.167	0.252	0.816	0.736
F fixed	0.811	0.684	0.72	0.689	0.455	0.209	0.213	0.486	0.594
G fixed	0.87	1.29	1.29	1.15	1.47	0.436	0.625	1.51	1.42
H fixed	1.22	1.7	1.45	1.05	1.22	0.786	1.34	1.27	1.22
I fixed	1.21	0.573	0.488	0.705	0.265	0.2	0.127	0.471	0.394
K fixed	1.06	0.797	0.927	0.89	1.92	3.26	2.66	1.93	2.25
L fixed	1.06	0.634	0.785	0.713	0.648	0.219	0.183	0.532	0.557
M fixed	1.46	0.701	0.79	0.747	0.856	0.25	0.204	0.782	0.601
N fixed	1.2	1.23	1.24	1.25	1.52	0.566	0.495	1.04	0.983
P fixed	0.382	1.29	1.58	1.74	1.44	0.271	0.824	1.19	1.21
Q fixed	1.3	1.23	1.22	1.34	1.17	0.555	0.715	1.04	0.97
R fixed	1.35	0.937	1.04	0.93	2.14	8.75	7.65	2.38	2.14
V fixed	0.892	0.59	0.517	0.877	0.446	0.191	0.184	0.482	0.605
W fixed	1.05	1.03	0.964	0.66	0.577	0.236	0.329	0.6	0.746
Y fixed	1.06	0.709	0.855	0.698	0.839	0.276	0.354	0.67	0.624
pThr fixed	0.988	0.988	0.984	1.67	0.443	0.319	0.474	0.789	0.727
pTyr fixed	1.06	1	1.24	1.37	0.979	0.276	0.451	0.775	0.82

PRKCG, construct: Full length (from UniProt P05129)
relative phosphorylation
Details	at +1	at +2	at +3	at +4	at -1	at -2	at -3	at -4	at -5
A fixed	0.569	0.495	0.701	0.922	0.946	0.862	0.699	1.09	1.16
D fixed	0.22	0.261	0.452	0.666	0.538	0.455	0.412	0.62	0.676
E fixed	0.29	0.183	0.628	0.508	0.477	0.388	0.415	0.708	0.554
F fixed	1.46	0.545	0.842	0.662	0.479	0.72	0.771	0.818	1.21
G fixed	0.516	0.337	1.06	1.27	1.87	1.19	1.06	1.32	1.23
H fixed	0.686	1.26	1.23	1.32	0.972	1.12	1.3	1.28	1.23
I fixed	1.37	0.507	0.723	0.507	0.311	0.329	0.381	0.49	0.572
K fixed	1.92	4.06	2.11	2.56	1.87	2.01	2	1.55	1.71
L fixed	1.34	0.484	0.932	0.531	0.548	0.409	0.469	0.506	0.589
M fixed	1.56	0.599	0.738	0.586	0.741	0.606	0.652	0.767	0.572
N fixed	0.652	0.609	1.02	1.01	1.24	1.28	1.08	1.1	0.85
P fixed	0.333	0.334	0.516	1.36	1.16	1.16	1.12	1.09	0.937
Q fixed	1.15	0.688	0.856	1.09	1.08	1.21	0.934	1.05	0.887
R fixed	1.98	4.33	2.43	1.97	2.85	2.99	3.78	1.94	1.71
V fixed	1.15	0.48	0.608	0.563	0.497	0.418	0.496	0.639	0.723
W fixed	0.751	0.6	1.03	0.817	0.558	1	0.707	1.23	1.54
Y fixed	1.05	1.22	1.12	0.664	0.869	0.841	0.725	0.799	0.848
pThr fixed	0.973	0.563	0.673	0.486	0.484	0.746	0.805	0.947	0.683
pTyr fixed	0.794	0.916	0.911	0.498	0.875	0.842	0.973	0.86	0.8
